Changes are numbered by the printed parent chain.
How the values were obtained:
Test in all cases: flow cytometry, peptide-loaded T2 cells;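 also: binding of single-chain Fv antibody constructs, raised in XenoMouse, to peptide-pulsed T2 cells measured by flow cytometry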
[1] = target: T1, MAGEB2 peptide … (SEQ ID NO: 1) complexed with HLA-A*02:01 on the cell surface (human)
T1 construct: whole, on cells; also called pMAGE-HLA; MAGEB2 pMHC
Protocol: (§1) Binding of pMAGE-HLA scFv constructs, generated from the XenoMouse, on peptide loaded T2 cells was evaluated by flow cytometry.

[2] = target: T2, STXBP5 peptide complexed with HLA-A*02:01 on T2 cells (human)
T2 construct: whole, on cells
Protocol: as §1

[3] = target: T3, MB peptide complexed with HLA-A*02:01 on T2 cells (human)
T3 construct: whole, on cells
Protocol: as §1

[4] = target: T4, DPYSL4 peptide complexed with HLA-A*02:01 on T2 cells (human)
T4 construct: whole, on cells
Protocol: as §1

[5] = target: T5, SLK peptide complexed with HLA-A*02:01 on T2 cells (human)
T5 construct: whole, on cells
Protocol: as §1

[6] = target: T6, MYOF peptide complexed with HLA-A*02:01 on T2 cells (human)
T6 construct: whole, on cells
Protocol: as §1

[7] = target: T7, KEA peptide complexed with HLA-A*02:01 on T2 cells (human)
T7 construct: whole, on cells
Protocol: as §1

[8] = target: T8, ADF peptide complexed with HLA-A*02:01 on T2 cells (human)
T8 construct: whole, on cells
Protocol: as §1

[9] = target: T9, CNDP2 peptide complexed with HLA-A*02:01 on T2 cells (human)
T9 construct: whole, on cells; also called CNPD2
Protocol: as §1

[10] = target: T10, COX14 peptide complexed with HLA-A*02:01 on T2 cells (human)
T10 construct: whole, on cells
Protocol: as §1

B1: 18181-G10 (scFv)
scFv: EVQLLESGPGLVKPSQTLSLTCTVSGDSISSNPYYWSWIRQLPGKGLEWIGYISYSGSTFYNPSLKSRVTISVDTSKNQFSLNLTSVTAADTAVYYCARDRLWFGVLNYYYGMDVWGLGTTVTVSSGGGGSGGGGSGGGGSELVMTQSPLSLPVTPGEPASISCRSSQSLLHSTGYNYVDWYLQKPGQSPQLLIYLGSNRASGVPDRFSGSGSGTDFTLKISRVEAEDVGFYYCMQALQTPRTFGQGTKVEIK
notes: scFv in bacterial lysate, detected with anti-Flag M2
- Signal/background [1]: 121
- Signal/background [2]: 1
- Signal/background [3]: 1
- Signal/background [4]: 1
- Signal/background [5]: 1.1
- Signal/background [6]: 1
- Signal/background [7]: 1
- Signal/background [8]: 1
- Signal/background [9]: 1.1
- Signal/background [10]: 1

B2: 18181-C9 (scFv)
scFv: B1 scFv with M145L, S173R, T174N, V179L, F231V, A237G, R242F, Q246P
notes: as for B1
- Signal/background [1]: 140
- Signal/background [2]: 1.1
- Signal/background [3]: 1
- Signal/background [4]: 0.9
- Signal/background [5]: 1
- Signal/background [6]: 1.1
- Signal/background [7]: 0.9
- Signal/background [8]: 1
- Signal/background [9]: 1
- Signal/background [10]: 0.9

B3: 18181-E2 (scFv)
scFv: B1 scFv with L42H, Y55H, F60Y, T174S, V179L, R223K, F231V, E251D
notes: as for B1
- Signal/background [1]: 103
- Signal/background [2]: 1.1
- Signal/background [3]: 1
- Signal/background [4]: 1
- Signal/background [5]: 1.1
- Signal/background [6]: 1.1
- Signal/background [7]: 1
- Signal/background [8]: 1.1
- Signal/background [9]: 1
- Signal/background [10]: 1.1

B4: 18089-B2 (scFv)
scFv: EVQLLESGGGLVQPGGSLRLSCAASGFTFSSYAMSWVRQAPGRGLEWVSTISISGGSTNYADSVKGRFTISRDNSKNTLYLQMNSLRAEDTAVYYCAKDGGSGWFPKLLHYGLDVWGQGTTVTVSSGGGGSGGGGSGGGGSELQMTQSPSSLSASVGDRVTITCQASQDISNYLNWYQQKPGKAPKLLIYAASSLQSGVPSRFSGSGSGTDFTLTISSLQPEDFATYYCQQSYSIPLTFGGGTKVEIK
notes: as for B1
- Signal/background [1]: 318
- Signal/background [2]: 1
- Signal/background [3]: 1.1
- Signal/background [4]: 1
- Signal/background [5]: 1.1
- Signal/background [6]: 1.1
- Signal/background [7]: 1
- Signal/background [8]: 1
- Signal/background [9]: 1
- Signal/background [10]: 0.9

B5: 18093-B11 (scFv)
scFv: EVQLLESGGGLVKPGGSLRLSCAASGFTFSDYYMSWIRQAPGKGLEWVSYISKSGSTIYYADSVKGRFTISRDNAKNSLYLQMNSLRAEDTAVYYCATYNYGHFDYWGQGTLVTVSSGGGGSGGGGSGGGGSELVLTQPPSVSVAPGQTARITCGGNNIGSKSVHWYQQKPGQAPVLVVYDDSDRPSGIPERFSGSNSGNTATLTISRVEAGDEADYYCQVWDSSSDHHVVFGGGTKLTVL
notes: as for B1
- Signal/background [1]: 219
- Signal/background [2]: 1.1
- Signal/background [3]: 1.2
- Signal/background [4]: 1
- Signal/background [5]: 1.1
- Signal/background [6]: 1.2
- Signal/background [7]: 1.1
- Signal/background [8]: 1.1
- Signal/background [9]: 1
- Signal/background [10]: 1.2

B6: 18181-B8 (scFv)
scFv: EVQLLESGPGLVKPSQTLSLTCTVSGGSISSGGYYWSWIRQHPGKGLEWIGYISHSGSTYYNPSLKSRVTISVDTSKNQFSLNLTSVTAADTAVYYCAREKMWFGVLNYYYGMDVWGQGTTVTVSSGGGGSGGGGSGGGGSELVMTQTPLSLPVTPGEPASISCRSSQSLLHRNGYNYLDWYLQKPGQSPQLLIYLGSNRASGVPDRFIGSGSGTDFTLEISRVEAEDVGVYYCMQALQTPSFGQGTKVEIK
notes: as for B1
- Signal/background [1]: 179
- Signal/background [2]: 0.9
- Signal/background [3]: 0.9
- Signal/background [4]: 1
- Signal/background [5]: 1
- Signal/background [6]: 1
- Signal/background [7]: 0.9
- Signal/background [8]: 1
- Signal/background [9]: 1
- Signal/background [10]: 0.9

B7: 18179-E1 (scFv)
scFv: EVQLLESGGGLVQPGGSLRLSCAASGFTFSNAWMSWVRQAPGKGLEWVGRIKGNTYGGTTDYAAPVKGRFTISRDDSKNTLYLQMNSLKTEDTAVYYCTTPSYSGSYYNYFSVMDVWGQGTTVTVSSGGGGSGGGGSGGGGSELVMTQSPSSLSASVGDRVTITCRTSQSISSYLNWYQQKPGRAPKLLIFAASSLQGGVPSRFSGSGSGTDFTLTISSLQPEDFATYYCQQTYSMPFTFGPGTKVDIK
notes: as for B1
- Signal/background [1]: 419
- Signal/background [2]: 1
- Signal/background [3]: 1
- Signal/background [4]: 1
- Signal/background [5]: 1.1
- Signal/background [6]: 1
- Signal/background [7]: 1
- Signal/background [8]: 0.9
- Signal/background [9]: 1
- Signal/background [10]: 0.9

B8: 18181-G8 (scFv)
scFv: B7 scFv with Y82F, Y103N, R184K, F191Y, G198S, P242G, D247E
notes: as for B1
- Signal/background [1]: 489
- Signal/background [2]: 1
- Signal/background [3]: 0.9
- Signal/background [4]: 1.1
- Signal/background [5]: 1
- Signal/background [6]: 1
- Signal/background [7]: 0.9
- Signal/background [8]: 1
- Signal/background [9]: 1
- Signal/background [10]: 1

B9: 18181-A6 (scFv)
scFv: B7 scFv with T167A, V246L, D247E
notes: as for B1
- Signal/background [1]: 430
- Signal/background [2]: 1
- Signal/background [3]: 1
- Signal/background [4]: 1
- Signal/background [5]: 1.1
- Signal/background [6]: 1.1
- Signal/background [7]: 0.9
- Signal/background [8]: 1
- Signal/background [9]: 1
- Signal/background [10]: 0.9

B10: 18181-F1 (scFv)
scFv: B7 scFv with Q13K, Y82F, M236S, V246L, D247E
notes: as for B1
- Signal/background [1]: 443
- Signal/background [2]: 1
- Signal/background [3]: 1
- Signal/background [4]: 1.1
- Signal/background [5]: 1.1
- Signal/background [6]: 1.1
- Signal/background [7]: 0.9
- Signal/background [8]: 1.1
- Signal/background [9]: 1.1
- Signal/background [10]: 1.1

B11: 18181-F3 (scFv)
scFv: B7 scFv with Y82F, T233S, M236S, D247E
notes: as for B1
- Signal/background [1]: 232
- Signal/background [2]: 1.2
- Signal/background [3]: 0.9
- Signal/background [4]: 1.1
- Signal/background [5]: 1
- Signal/background [6]: 1.1
- Signal/background [7]: 1
- Signal/background [8]: 1
- Signal/background [9]: 1.1
- Signal/background [10]: 0.9

B12: 18179-H7 (scFv)
scFv: B7 scFv with G53S, N54K, V145Q, Y178F, R184K, G198S, T233S, M236S, D247E
notes: as for B1
- Signal/background [1]: 399
- Signal/background [2]: 1
- Signal/background [3]: 1
- Signal/background [4]: 1
- Signal/background [5]: 0.9
- Signal/background [6]: 1.1
- Signal/background [7]: 1
- Signal/background [8]: 1.1
- Signal/background [9]: 1
- Signal/background [10]: 1

Reference: US20220017636A1 (Amgen, published 2022)
